From patent US20220401521A1 (NANJING HANXIN PHARMACEUTICAL TECHNOLOGY, published 2022)
No end group written: not given here.

Experiments:
[1] = biological target: melanocortin receptor 2 (MC2R); experiment: cell-based or functional assay
[2] = biological target: melanocortin receptor 2 (MC2R); experiment: cell-based or functional assay; remark: listed apart in the source

Sequence of melanocortin receptor 2 (MC2R) (Q01718 whole entry): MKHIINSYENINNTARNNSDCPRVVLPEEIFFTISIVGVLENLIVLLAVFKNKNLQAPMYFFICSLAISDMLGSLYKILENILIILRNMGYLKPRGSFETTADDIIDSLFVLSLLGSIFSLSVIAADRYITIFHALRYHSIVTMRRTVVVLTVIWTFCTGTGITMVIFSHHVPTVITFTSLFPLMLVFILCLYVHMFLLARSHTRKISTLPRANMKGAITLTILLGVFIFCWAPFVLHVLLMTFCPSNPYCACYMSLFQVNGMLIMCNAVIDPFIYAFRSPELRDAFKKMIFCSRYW

Row | Binder | activity of high-purity ACTH relative to low-purity ACTH (calcium ion signal, MC2R cells) [1] [fold] | EC50(nM), calcium ion signal in CHO-K1 cells expressing MC2R [2] [nM]
1 | SYSMEHFRWGKPVGKKRRPVKVYPNGAEDESAEAFPLEF (also: acetate salt) [high-purity ACTH (human sequence SEQ ID NO: 3, 99.88%)] | 1.6 | 180
2 | SYSMEHFRWGKPVGKKRRPVKVYPNGAEDESAEAFPLEF [low-purity ACTH (human sequence SEQ ID NO: 3, 75.72%)] | – | 288
